In test [1] the target is T1, IGF1 (human, UniProt P05019). The test can be described thus: ELISA. (An ELISA detects its analyte on a solid surface through an enzyme-linked reagent.)
The target in test [2] is T2, IGF2 (human, UniProt P01344). The test can be described thus: SPR.
Test [3] concerns the target T2, IGF2. The test can be described thus: ELISA.
Test [4] deals with T1, IGF1. The test can be described thus: ELISA. The source holds these as a separate data set.
Test [5] deals with T2, IGF2. In words: ELISA. The source holds these as a separate data set.
Test [6] addresses T3, ErbB3 (human, UniProt P21860). The test can be described thus: ELISA.
Test [7] addresses T3, ErbB3. The test can be described thus: SPR. For orientation: In SPR one partner is held on a chip, and binding of the other changes the refractive index at the surface.
Test [8] deals with T3, ErbB3. The test can be described thus: ELISA. This is another data set of the same source.
In test [9] the target is T4, DLL4 (human, UniProt Q9NR61). In words: ELISA.
T4 sequence (Q9NR61 27-524): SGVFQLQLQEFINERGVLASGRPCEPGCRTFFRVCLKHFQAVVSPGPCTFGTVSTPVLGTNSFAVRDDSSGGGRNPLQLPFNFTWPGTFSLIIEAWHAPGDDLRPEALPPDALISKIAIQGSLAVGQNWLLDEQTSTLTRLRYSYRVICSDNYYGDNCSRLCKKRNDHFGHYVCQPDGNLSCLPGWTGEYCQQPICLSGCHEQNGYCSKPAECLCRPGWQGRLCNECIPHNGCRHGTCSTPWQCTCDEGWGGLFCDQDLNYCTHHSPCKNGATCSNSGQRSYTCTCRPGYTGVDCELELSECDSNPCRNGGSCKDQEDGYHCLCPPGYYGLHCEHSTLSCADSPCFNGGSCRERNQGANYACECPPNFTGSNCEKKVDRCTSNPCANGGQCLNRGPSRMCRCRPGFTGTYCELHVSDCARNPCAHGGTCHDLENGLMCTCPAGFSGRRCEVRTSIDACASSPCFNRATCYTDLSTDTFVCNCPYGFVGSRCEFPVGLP
In test [10] the target is T4, DLL4. The test can be described thus: competition.
The target of test [11] is T4, DLL4. The test can be described thus: SPR.
Test [12] deals with T5, PlGF (human, UniProt P49763).
T5 chain: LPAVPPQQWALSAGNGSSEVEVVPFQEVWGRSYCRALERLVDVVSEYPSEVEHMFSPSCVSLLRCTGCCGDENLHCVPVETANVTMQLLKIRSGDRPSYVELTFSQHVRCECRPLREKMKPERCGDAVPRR
The test can be described thus: SPR.

In test [13] the target is T5, PlGF. In words: ELISA.
In test [14] the target is T6, IGF1R (human, UniProt P08069). In words: ELISA.
The target of test [15] is T6, IGF1R. The test can be described thus: ELISA. The source holds these as a separate data set.
Test [16] addresses T7, HGF (human, UniProt P14210). The test can be described thus: SPR.
For test [17], the target named is T7, HGF. The test can be described thus: ELISA.
The target of test [18] is T7, HGF. The test can be described thus: competition.

What is called EC50 is the concentration giving half of the maximal effect. Read a high EC50 as a less potent agent. Broadly, the Kd is the concentration at which binding is half-saturated. Higher therefore signals weaker binding. By IC50 is commonly meant the concentration needed to halve the response being measured. Read a low IC50 as higher potency.

“And” between values parts separate entries of the source, which are not always exact repeats. Equal entries are not always repeated. Where two headings read alike, the source gives them in different places. Some results are limits rather than exact numbers.

T7 sequence (P14210 32-728): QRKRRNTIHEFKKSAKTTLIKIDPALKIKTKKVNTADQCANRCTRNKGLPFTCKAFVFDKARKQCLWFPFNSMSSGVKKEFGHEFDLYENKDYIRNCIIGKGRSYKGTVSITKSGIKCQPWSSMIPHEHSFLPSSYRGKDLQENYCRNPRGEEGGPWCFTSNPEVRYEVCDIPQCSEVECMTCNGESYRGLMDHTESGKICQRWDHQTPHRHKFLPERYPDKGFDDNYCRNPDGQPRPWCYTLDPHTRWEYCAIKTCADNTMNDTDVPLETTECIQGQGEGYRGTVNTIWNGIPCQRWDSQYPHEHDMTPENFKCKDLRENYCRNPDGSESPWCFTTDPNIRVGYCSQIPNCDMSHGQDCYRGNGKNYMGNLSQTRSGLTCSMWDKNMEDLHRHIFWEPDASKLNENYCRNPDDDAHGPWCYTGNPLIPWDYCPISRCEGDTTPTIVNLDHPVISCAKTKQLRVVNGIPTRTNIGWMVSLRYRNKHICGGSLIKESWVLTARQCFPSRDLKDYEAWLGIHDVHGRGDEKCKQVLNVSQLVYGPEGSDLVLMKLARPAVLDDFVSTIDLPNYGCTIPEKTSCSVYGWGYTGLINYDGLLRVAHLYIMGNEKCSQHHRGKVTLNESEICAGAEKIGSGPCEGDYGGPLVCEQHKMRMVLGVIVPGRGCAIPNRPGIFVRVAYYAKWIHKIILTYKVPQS

B1: DVD041 IGF1,2 arm (antibody, V domains shown)
VH: QVQLVQSGAEVKKPGASVKVSCKASGYTFTSYDINWVRQATGQGLEWMGWMNPNSGNTGYAQKFQGRVTMTRNTSISTAYMELSSLRSEDTAVYYCARDPYYYYYGMDVWGQGTTVTVSS
VL: QSVLTQPPSVSAAPGQKVTISCSGSSSNIENNHVSWYQQLPGTAPKLLIYDNNKRPSGIPDRFSGSKSGTSATLGITGLQTGDEADYYCETWDTSLSAGRVFGGGTKLTVLG
modifications: DVD-Ig inner
As to B1, the EC50 in the test with IGF1 [1] came out at 381 nM; with IGF2 [3], 7340 nM; in the test with IGF1 [4], 381 nM; in the test with IGF2 [5] it was 7340 nM. In the test with IGF2 [2], this molecule came in with a Kd below 0.0124 nM.

B2: DVD042 IGF1,2 arm (antibody, V domains shown)
VH: QVQLVQSGAEVKKPGASVKVSCKASGYTFTSYDINWVRQATGQGLEWMGWMNPNSGNTGYAQKFQGRVTMTRNTSISTAYMELSSLRSEDTAVYYCARDPYYYYYGMDVWGQGTTVTVSS
VL: QSVLTQPPSVSAAPGQKVTISCSGSSSNIENNHVSWYQQLPGTAPKLLIYDNNKRPSGIPDRFSGSKSGTSATLGITGLQTGDEADYYCETWDTSLSAGRVFGGGTKLTVLG
modifications: DVD-Ig outer
For B2, the EC50 in the test with IGF1 [1] amounted to 2.5 nM; in the test with IGF2 [3], 17.6 nM; with IGF1 [4] it was 2.54 nM; with IGF2 [5] it was 17.6 nM. Besides, the Kd with IGF2 [2] came out at 0.000998 nM.

B3: AB063 (antibody, V domains shown)
VH: EVQLVESGGGLVQPGGSLRLSCAASGFTFSIYSMNWVRQAPGKGLEWVSYISSSSSTIYYADSVKGRFTISRDNAKNSLYLQMNSLRDEDTAVYYCARDRGDFDAFDIWGQGTMVTVSS
VL: DIQMTQSPSSLSASVGDRVTITCQASQDITNYLNWYQQKPGKAPKLLIYDASNLETGVPSRFSGSGSGTDFTFTISSLQPEDIATYNCQQCENFPITFGQGTRLEIKR
On to B3, for which the EC50 was found to be 0.67 nM with ErbB3 [6] and 0.28 nM with ErbB3 [8]. Binding with ErbB3 [7] was characterised by a dissociation constant (Kd) of 0.15 nM.

B4: DVD306 ErbB3 arm (antibody, V domains shown)
VH: EVQLVESGGGLVQPGGSLRLSCAASGFTFSIYSMNWVRQAPGKGLEWVSYISSSSSTIYYADSVKGRFTISRDNAKNSLYLQMNSLRDEDTAVYYCARDRGDFDAFDIWGQGTMVTVSS
VL: DIQMTQSPSSLSASVGDRVTITCQASQDITNYLNWYQQKPGKAPKLLIYDASNLETGVPSRFSGSGSGTDFTFTISSLQPEDIATYNCQQCENFPITFGQGTRLEIKR
modifications: DVD-Ig inner
Consider B4, for which the results for the EC50 with ErbB3 [6] and with ErbB3 [8] were above 10 nM and 151 nM, respectively.

B5: DVD258 DLL4 arm (antibody)
chain 1: EVQLVESGGGLVQPGGSLRLSCAASGFTFTDNWISWVRQAPGKGLEWVGYISPNSGFTYYADSVKGRFTISADTSKNTAYLQMNSLRAEDTAVYYCARDNFGGYFDYWGQGTLVTVSS
chain 2: DIQMTQSPSSLSASVGDRVTITCRASQDVSTAVAWYQQKPGKAPKLLIYSASFLYSGVPSRFSGSGSGTDFTLTISSLQPEDFATTYYCQQSYTGTVTFGQGTKVEIKR
modifications: DVD-Ig inner
Molecule B5 returned an EC50 with DLL4 [9] of 2.3 nM. The molecule further yielded an IC50 in the test with DLL4 [10] of 17.5 nM.

B6: DVD257 DLL4 arm (antibody)
chain 1: EVQLVESGGGLVQPGGSLRLSCAASGFTFTDNWISWVRQAPGKGLEWVGYISPNSGFTYYADSVKGRFTISADTSKNTAYLQMNSLRAEDTAVYYCARDNFGGYFDYWGQGTLVTVSS
chain 2: DIQMTQSPSSLSASVGDRVTITCRASQDVSTAVAWYQQKPGKAPKLLIYSASFLYSGVPSRFSGSGSGTDFTLTISSLQPEDFATTYYCQQSYTGTVTFGQGTKVEIKR
modifications: DVD-Ig outer
Take B6: the EC50 with DLL4 [9] was found to be 0.28 nM. The molecule also had an IC50 in the test with DLL4 [10] of 0.38 nM. In the test with DLL4 [11], binding was characterised by a dissociation constant (Kd) of 0.234 nM.

B7: DVD259 PlGF arm (antibody, V domains shown)
VH: QVQLQQSGAELVKPGASVKISCKASGYTFTDYYINWVKLAPGQGLEWIGWIYPGSGNTKYNEKFKGKATLTIDTSSSTAYMQLSSLTSEDTAVYFCVRDSPFFDYWGQGTLLTVSS
VL: DIVLTQSPDSLAVSLGERVTMNCKSSQSLLNSGMRKSFLAWYQQKPGQSPKLLIYWASTRESGVPDRFTGSGSGTDFTLTISSVQAEDVAVYYCKQSYHLFTFGSGTKLEIKR
modifications: DVD-Ig inner
B7: the Kd with PlGF [12] came out at 0.33 nM. The EC50 with PlGF [13] amounted to 1.3 nM.

B8: DVD260 PlGF arm (antibody, V domains shown)
VH: QVQLQQSGAELVKPGASVKISCKASGYTFTDYYINWVKLAPGQGLEWIGWIYPGSGNTKYNEKFKGKATLTIDTSSSTAYMQLSSLTSEDTAVYFCVRDSPFFDYWGQGTLLTVSS
VL: DIVLTQSPDSLAVSLGERVTMNCKSSQSLLNSGMRKSFLAWYQQKPGQSPKLLIYWASTRESGVPDRFTGSGSGTDFTLTISSVQAEDVAVYYCKQSYHLFTFGSGTKLEIKR
modifications: DVD-Ig outer
For the molecule B8, the Kd with PlGF [12] stood at 0.012 nM. The molecule also returned an EC50 with PlGF [13] of 0.12 nM.

B9: DVD031 IGF1R arm (antibody, V domains shown)
VH: EVQLLESGGGLVQPGGSLRLSCTASGFTFSSYAMNWVRQAPGKGLEWVSAISGSGGTTFYADSVKGRFTISRDNSRTTLYLQMNSLRAEDTAVYYCAKDLGWSDSYYYYYGMDVWGQGTTVTVSS
VL: DIQMTQFPSSLSASVGDRVTITCRASQGIRNDLGWYQQKPGKAPKRLIYAASRLHRGVPSRFSGSGSGTEFTLTISSLQPEDFATYYCLQHNSYPCSFGQGTKLEIKR
modifications: DVD-Ig inner
B9: the EC50 in the test with IGF1R [14] and in the test with IGF1R [15] was 171 nM throughout.

B10: DVD021 IGF1R arm (antibody, V domains shown)
VH: EVQLLESGGGLVQPGGSLRLSCTASGFTFSSYAMNWVRQAPGKGLEWVSAISGSGGTTFYADSVKGRFTISRDNSRTTLYLQMNSLRAEDTAVYYCAKDLGWSDSYYYYYGMDVWGQGTTVTVSS
VL: DIQMTQFPSSLSASVGDRVTITCRASQGIRNDLGWYQQKPGKAPKRLIYAASRLHRGVPSRFSGSGSGTEFTLTISSLQPEDFATYYCLQHNSYPCSFGQGTKLEIKR
modifications: DVD-Ig inner
On to B10, for which the EC50 with IGF1R [14] and with IGF1R [15] was 135 nM each time.

B11: DVD033 HGF arm (antibody, V domains shown)
VH: QVQLVESGGGLVKPGGSLRLSCAASGFTFSDYYMSWIRQAPGKGLEWVSYISSSGSTIYYADSVKGRFTISRDNAKNSLYLQMNSLRAEDTAVYYCARDEYNSGWYVLFDYWGQGTLVTVSS
VL: DIQMTQSPSSVSASVGDRVTITCRASQGISSWLAWYQQKPGKAPNLLIYEASSLQSGVPSRFGGSGSGTDFTLTISSLQPEDFATYYCQQANGFPWTFGQGTKVEIKR
modifications: DVD-Ig inner
For the molecule B11, the Kd in the test with HGF [16] amounted to 0.31 nM. This molecule also yielded an EC50 with HGF [17] of 11.9 nM. The same molecule showed an IC50 with HGF [18] of 8.7 nM.

B12: DVD034 HGF arm (antibody, V domains shown)
VH: QVQLVESGGGLVKPGGSLRLSCAASGFTFSDYYMSWIRQAPGKGLEWVSYISSSGSTIYYADSVKGRFTISRDNAKNSLYLQMNSLRAEDTAVYYCARDEYNSGWYVLFDYWGQGTLVTVSS
VL: DIQMTQSPSSVSASVGDRVTITCRASQGISSWLAWYQQKPGKAPNLLIYEASSLQSGVPSRFGGSGSGTDFTLTISSLQPEDFATYYCQQANGFPWTFGQGTKVEIKR
modifications: DVD-Ig outer
As to B12, the Kd with HGF [16] is 0.0215 nM. The same molecule yielded an EC50 in the test with HGF [17] of 0.27 nM. The molecule also displayed an IC50 with HGF [18] of 0.34 nM.

B13: DVD025 HGF arm (antibody, V domains shown)
VH: QVQLVESGGGLVKPGGSLRLSCAASGFTFSDYYMSWIRQAPGKGLEWVSYISSSGSTIYYADSVKGRFTISRDNAKNSLYLQMNSLRAEDTAVYYCARDEYNSGWYVLFDYWGQGTLVTVSS
VL: DIQMTQSPSSVSASVGDRVTITCRASQGISSWLAWYQQKPGKAPNLLIYEASSLQSGVPSRFGGSGSGTDFTLTISSLQPEDFATYYCQQANGFPWTFGQGTKVEIKR
modifications: DVD-Ig inner
In the test with HGF [16], B13 returned a Kd of 0.746 nM. In addition, in the test with HGF [17], the EC50 is 251 nM. For the same molecule, the IC50 with HGF [18] was above 100 nM.

B14: AB012 (antibody, V domains shown)
VH: QVQLVESGGGLVKPGGSLRLSCAASGFTFSDYYMSWIRQAPGKGLEWVSYISSSGSTIYYADSVKGRFTISRDNAKNSLYLQMNSLRAEDTAVYYCARDEYNSGWYVLFDYWGQGTLVTVSS
VL: DIQMTQSPSSVSASVGDRVTITCRASQGISSWLAWYQQKPGKAPNLLIYEASSLQSGVPSRFGGSGSGTDFTLTISSLQPEDFATYYCQQANGFPWTFGQGTKVEIKR
Molecule B14 gave a Kd with HGF [16] below 0.0284 nM. Besides, the EC50 with HGF [17] is 0.19 nM and 0.22 nM. Further, the IC50 in the test with HGF [18] was 0.18 nM.

B15: DVD299 ErbB3 arm (antibody, V domains shown)
VH: QVQLQQWGAGLLKPSETLSLTCAVYGGSFSGYYWSWIRQPPGKGLEWIGEINHSGSTNYNPSLKSRVTISVETSKNQFSLKLSSVTAADTAVYYCARDKWTWYFDLWGRGTLVTVSS
VL: not shown
modifications: DVD-Ig outer
As for B15, the Kd with ErbB3 [7] worked out at 0.82 nM. Also, the EC50 with ErbB3 [8] worked out at 1.96 nM.

B16: AB062 (antibody, V domains shown)
VH: QVQLQQWGAGLLKPSETLSLTCAVYGGSFSGYYWSWIRQPPGKGLEWIGEINHSGSTNYNPSLKSRVTISVETSKNQFSLKLSSVTAADTAVYYCARDKWTWYFDLWGRGTLVTVSS
VL: not shown
B16: the EC50 in the test with ErbB3 [6] is 0.26 nM; with ErbB3 [8] it was 1.93 nM. Moreover, the Kd in the test with ErbB3 [7] was determined as 1.36 nM.

Source of the values: patent publication US9029508 (dated 2015).
